{"source": "the supplement of paper PMC9112550", "about": "“Optimization of the antimicrobial peptide Bac7 by deep mutational scanning” (BMC Biology, 2022);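 further: peptides expressed intracellularly from a pBAD plasmid library in pooled LB shake-flask culture, induced with 0.3% L-arabinose, DNA abundance read by NGS, three biological replicates, DESeq2 with apeglm shrinkage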", "system": "Escherichia coli TOP10", "assay": "shrunken log2 fold change of peptide-encoding DNA abundance (4.5 h post-induction vs induction); higher = less antimicrobial activity (less host growth inhibition)", "settings": "time post-induction: 4.5 h; library: site-saturation at positions 5, 18, 19, 20"}
{"sequence": "RRIRPRPPRLPRPRPRPQTYPRP", "values": [{"measurement": "shrunken log2 fold change", "value": -0.256}]}
{"sequence": "RRIRFRPPRLPRPRPRPDIFPRP", "values": [{"measurement": "shrunken log2 fold change", "value": -0.396}]}
{"sequence": "RRIRARPPRLPRPRPRPQQEPRP", "values": [{"measurement": "shrunken log2 fold change", "value": -0.0196}]}
{"sequence": "RRIRERPPRLPRPRPRPPGFPRP", "values": [{"measurement": "shrunken log2 fold change", "value": 0.479}]}
{"sequence": "RRIRHRPPRLPRPRPRPQWQPRP", "values": [{"measurement": "shrunken log2 fold change", "value": -0.0687}]}
{"sequence": "RRIRQRPPRLPRPRPRPVHIPRP", "values": [{"measurement": "shrunken log2 fold change", "value": -0.1}]}
{"sequence": "RRIRARPPRLPRPRPRPCQRPRP", "values": [{"measurement": "shrunken log2 fold change", "value": 0.246}]}
{"sequence": "RRIRQRPPRLPRPRPRPCWIPRP", "values": [{"measurement": "shrunken log2 fold change", "value": -0.209}]}
{"sequence": "RRIRRRPPRLPRPRPRPHKPPRP", "values": [{"measurement": "shrunken log2 fold change", "value": -0.176}]}
{"sequence": "RRIRARPPRLPRPRPRPSDFPRP", "values": [{"measurement": "shrunken log2 fold change", "value": 0.0983}]}
{"sequence": "RRIRIRPPRLPRPRPRPTPFPRP", "values": [{"measurement": "shrunken log2 fold change", "value": -0.133}]}
{"sequence": "RRIRTRPPRLPRPRPRPVCPPRP", "values": [{"measurement": "shrunken log2 fold change", "value": 0.186}]}
{"sequence": "RRIRSRPPRLPRPRPRPDFLPRP", "values": [{"measurement": "shrunken log2 fold change", "value": -0.0689}]}
{"sequence": "RRIRWRPPRLPRPRPRPVPLPRP", "values": [{"measurement": "shrunken log2 fold change", "value": 0.00691}]}
{"sequence": "RRIRTRPPRLPRPRPRPNDAPRP", "values": [{"measurement": "shrunken log2 fold change", "value": -0.036}]}
{"sequence": "RRIRSRPPRLPRPRPRPDHQPRP", "values": [{"measurement": "shrunken log2 fold change", "value": -0.263}]}
{"sequence": "RRIRERPPRLPRPRPRPIEDPRP", "values": [{"measurement": "shrunken log2 fold change", "value": -0.199}]}
{"sequence": "RRIRYRPPRLPRPRPRPWFIPRP", "values": [{"measurement": "shrunken log2 fold change", "value": -0.054}]}
{"sequence": "RRIRLRPPRLPRPRPRPNGTPRP", "values": [{"measurement": "shrunken log2 fold change", "value": -0.221}]}
{"sequence": "RRIRERPPRLPRPRPRPTNWPRP", "values": [{"measurement": "shrunken log2 fold change", "value": 0.0202}]}
{"sequence": "RRIRQRPPRLPRPRPRPLNVPRP", "values": [{"measurement": "shrunken log2 fold change", "value": -0.0218}]}
{"sequence": "RRIRCRPPRLPRPRPRPGWNPRP", "values": [{"measurement": "shrunken log2 fold change", "value": -0.243}]}
{"sequence": "RRIRNRPPRLPRPRPRPVYKPRP", "values": [{"measurement": "shrunken log2 fold change", "value": -0.453}]}
{"sequence": "RRIRRRPPRLPRPRPRPVHGPRP", "values": [{"measurement": "shrunken log2 fold change", "value": 0.335}]}
{"sequence": "RRIRKRPPRLPRPRPRPADNPRP", "values": [{"measurement": "shrunken log2 fold change", "value": 0.0284}]}
{"sequence": "RRIRERPPRLPRPRPRPFCVPRP", "values": [{"measurement": "shrunken log2 fold change", "value": -0.026}]}
{"sequence": "RRIRLRPPRLPRPRPRPCPDPRP", "values": [{"measurement": "shrunken log2 fold change", "value": -0.136}]}
{"sequence": "RRIRPRPPRLPRPRPRPCDIPRP", "values": [{"measurement": "shrunken log2 fold change", "value": 0.024}]}
{"sequence": "RRIRPRPPRLPRPRPRPESGPRP", "values": [{"measurement": "shrunken log2 fold change", "value": 0.415}]}
{"sequence": "RRIRFRPPRLPRPRPRPGNNPRP", "values": [{"measurement": "shrunken log2 fold change", "value": -0.276}]}
{"sequence": "RRIRARPPRLPRPRPRPVRVPRP", "values": [{"measurement": "shrunken log2 fold change", "value": 0.781}]}
{"sequence": "RRIRLRPPRLPRPRPRPIWGPRP", "values": [{"measurement": "shrunken log2 fold change", "value": 0.112}]}
{"sequence": "RRIRYRPPRLPRPRPRPNAFPRP", "values": [{"measurement": "shrunken log2 fold change", "value": -0.158}]}
{"sequence": "RRIRTRPPRLPRPRPRPEAWPRP", "values": [{"measurement": "shrunken log2 fold change", "value": 0.178}]}
{"sequence": "RRIRQRPPRLPRPRPRPMDVPRP", "values": [{"measurement": "shrunken log2 fold change", "value": -0.0102}]}
{"sequence": "RRIRTRPPRLPRPRPRPQSYPRP", "values": [{"measurement": "shrunken log2 fold change", "value": -0.0281}]}
{"sequence": "RRIRMRPPRLPRPRPRPGMHPRP", "values": [{"measurement": "shrunken log2 fold change", "value": 0.186}]}
{"sequence": "RRIRFRPPRLPRPRPRPGHQPRP", "values": [{"measurement": "shrunken log2 fold change", "value": -0.233}]}
{"sequence": "RRIRWRPPRLPRPRPRPGCFPRP", "values": [{"measurement": "shrunken log2 fold change", "value": 0.375}]}
{"sequence": "RRIRMRPPRLPRPRPRPYQQPRP", "values": [{"measurement": "shrunken log2 fold change", "value": -0.00196}]}
{"sequence": "RRIRFRPPRLPRPRPRPCCEPRP", "values": [{"measurement": "shrunken log2 fold change", "value": -0.414}]}
{"sequence": "RRIRPRPPRLPRPRPRPNTVPRP", "values": [{"measurement": "shrunken log2 fold change", "value": -0.411}]}
{"sequence": "RRIRKRPPRLPRPRPRPESYPRP", "values": [{"measurement": "shrunken log2 fold change", "value": 0.403}]}
{"sequence": "RRIRMRPPRLPRPRPRPHFWPRP", "values": [{"measurement": "shrunken log2 fold change", "value": 0.774}]}
{"sequence": "RRIRYRPPRLPRPRPRPIDKPRP", "values": [{"measurement": "shrunken log2 fold change", "value": -0.00865}]}
{"sequence": "RRIRERPPRLPRPRPRPMVQPRP", "values": [{"measurement": "shrunken log2 fold change", "value": 0.00276}]}
{"sequence": "RRIRPRPPRLPRPRPRPLTWPRP", "values": [{"measurement": "shrunken log2 fold change", "value": 0.0214}]}
{"sequence": "RRIRNRPPRLPRPRPRPTPTPRP", "values": [{"measurement": "shrunken log2 fold change", "value": 0.674}]}
{"sequence": "RRIRYRPPRLPRPRPRPMQWPRP", "values": [{"measurement": "shrunken log2 fold change", "value": -0.00277}]}
{"sequence": "RRIRCRPPRLPRPRPRPWVAPRP", "values": [{"measurement": "shrunken log2 fold change", "value": -0.0206}]}
{"sequence": "RRIRHRPPRLPRPRPRPWWGPRP", "values": [{"measurement": "shrunken log2 fold change", "value": -0.0666}]}
{"sequence": "RRIRFRPPRLPRPRPRPTSVPRP", "values": [{"measurement": "shrunken log2 fold change", "value": -0.0668}]}
{"sequence": "RRIRMRPPRLPRPRPRPQFHPRP", "values": [{"measurement": "shrunken log2 fold change", "value": -0.237}]}
{"sequence": "RRIRDRPPRLPRPRPRPYKFPRP", "values": [{"measurement": "shrunken log2 fold change", "value": -0.223}]}
{"sequence": "RRIRWRPPRLPRPRPRPTFYPRP", "values": [{"measurement": "shrunken log2 fold change", "value": -0.298}]}
{"sequence": "RRIRNRPPRLPRPRPRPPCIPRP", "values": [{"measurement": "shrunken log2 fold change", "value": -0.662}]}
{"sequence": "RRIRGRPPRLPRPRPRPTWCPRP", "values": [{"measurement": "shrunken log2 fold change", "value": 0.521}]}
{"sequence": "RRIRDRPPRLPRPRPRPKHCPRP", "values": [{"measurement": "shrunken log2 fold change", "value": 0.0694}]}
{"sequence": "RRIRHRPPRLPRPRPRPCMGPRP", "values": [{"measurement": "shrunken log2 fold change", "value": -0.194}]}
{"sequence": "RRIRCRPPRLPRPRPRPWDLPRP", "values": [{"measurement": "shrunken log2 fold change", "value": 0.129}]}
{"sequence": "RRIRKRPPRLPRPRPRPLWFPRP", "values": [{"measurement": "shrunken log2 fold change", "value": 0.107}]}
{"sequence": "RRIRVRPPRLPRPRPRPDHGPRP", "values": [{"measurement": "shrunken log2 fold change", "value": -0.0218}]}
{"sequence": "RRIRRRPPRLPRPRPRPYQWPRP", "values": [{"measurement": "shrunken log2 fold change", "value": -0.244}]}
{"sequence": "RRIRCRPPRLPRPRPRPMWGPRP", "values": [{"measurement": "shrunken log2 fold change", "value": -0.214}]}
{"sequence": "RRIRYRPPRLPRPRPRPVGHPRP", "values": [{"measurement": "shrunken log2 fold change", "value": -0.076}]}
{"sequence": "RRIRNRPPRLPRPRPRPKEPPRP", "values": [{"measurement": "shrunken log2 fold change", "value": 0.0169}]}
{"sequence": "RRIRRRPPRLPRPRPRPNTPPRP", "values": [{"measurement": "shrunken log2 fold change", "value": 0.0411}]}
{"sequence": "RRIRVRPPRLPRPRPRPNLFPRP", "values": [{"measurement": "shrunken log2 fold change", "value": -0.355}]}
{"sequence": "RRIRERPPRLPRPRPRPPDWPRP", "values": [{"measurement": "shrunken log2 fold change", "value": 0.674}]}
{"sequence": "RRIRIRPPRLPRPRPRPGKVPRP", "values": [{"measurement": "shrunken log2 fold change", "value": -0.621}]}
{"sequence": "RRIRARPPRLPRPRPRPILNPRP", "values": [{"measurement": "shrunken log2 fold change", "value": -0.273}]}
{"sequence": "RRIRLRPPRLPRPRPRPSGYPRP", "values": [{"measurement": "shrunken log2 fold change", "value": -0.152}]}
{"sequence": "RRIRNRPPRLPRPRPRPENTPRP", "values": [{"measurement": "shrunken log2 fold change", "value": -0.803}]}
{"sequence": "RRIRHRPPRLPRPRPRPLAYPRP", "values": [{"measurement": "shrunken log2 fold change", "value": -0.351}]}
{"sequence": "RRIRFRPPRLPRPRPRPPRLPRP", "values": [{"measurement": "shrunken log2 fold change", "value": 0.399}]}
{"sequence": "RRIRHRPPRLPRPRPRPYMMPRP", "values": [{"measurement": "shrunken log2 fold change", "value": -3.2}]}
{"sequence": "RRIRPRPPRLPRPRPRPHWMPRP", "values": [{"measurement": "shrunken log2 fold change", "value": 0.0365}]}
{"sequence": "RRIRVRPPRLPRPRPRPQASPRP", "values": [{"measurement": "shrunken log2 fold change", "value": 0.322}]}
{"sequence": "RRIRSRPPRLPRPRPRPKRHPRP", "values": [{"measurement": "shrunken log2 fold change", "value": 0.169}]}
{"sequence": "RRIRFRPPRLPRPRPRPFVWPRP", "values": [{"measurement": "shrunken log2 fold change", "value": -0.0869}]}
{"sequence": "RRIRQRPPRLPRPRPRPTARPRP", "values": [{"measurement": "shrunken log2 fold change", "value": 0.219}]}
{"sequence": "RRIRRRPPRLPRPRPRPEKEPRP", "values": [{"measurement": "shrunken log2 fold change", "value": 0.224}]}
{"sequence": "RRIRGRPPRLPRPRPRPPHEPRP", "values": [{"measurement": "shrunken log2 fold change", "value": 0.773}]}
{"sequence": "RRIRERPPRLPRPRPRPDTEPRP", "values": [{"measurement": "shrunken log2 fold change", "value": -0.0215}]}
{"sequence": "RRIRNRPPRLPRPRPRPHCMPRP", "values": [{"measurement": "shrunken log2 fold change", "value": -0.251}]}
{"sequence": "RRIRKRPPRLPRPRPRPFTMPRP", "values": [{"measurement": "shrunken log2 fold change", "value": -0.23}]}
{"sequence": "RRIRWRPPRLPRPRPRPKVNPRP", "values": [{"measurement": "shrunken log2 fold change", "value": 0.175}]}
{"sequence": "RRIRRRPPRLPRPRPRPWLGPRP", "values": [{"measurement": "shrunken log2 fold change", "value": 0.353}]}
{"sequence": "RRIRYRPPRLPRPRPRPFWYPRP", "values": [{"measurement": "shrunken log2 fold change", "value": -0.234}]}
{"sequence": "RRIRWRPPRLPRPRPRPVREPRP", "values": [{"measurement": "shrunken log2 fold change", "value": 0.0727}]}
{"sequence": "RRIRARPPRLPRPRPRPQLDPRP", "values": [{"measurement": "shrunken log2 fold change", "value": 0.654}]}
